Experimental data reported in paper PMC3085272.

Target: Rac1-GMPPNP (UniProt P63000)
Experiment: equilibrium dialysis

## ΔWRC (VCA-deleted WRC, containing WAVE1(1-186)) (from UniProt Q7L576;Q9Y2A7;Q92558;Q9NYB9;Q8WUW1) (complex)
  Kd: 1000 to 2000 nM
